This is an account of results in paper PMC4933246, “Alanine Expansions Associated with Congenital Central Hypoventilation Syndrome Impair PHOX2B Homeodomain-mediated Dimerization and Nuclear Import*”.

The chains are these.
B1: PRS1 (dsDNA)
DNA 1: ATGTGTCATTAGTGCCAATTAGAGG
DNA 2: CCTCTAATTGGCACTAATGACACAT
B2: ATTA 3-4 sites probe (dsDNA)
DNA 1: GGTGGTATTAAATTCTAATTAGAGATGCA
DNA 2: TGCATCTCTAATTAGAATTTAATACCACC
B3: ATTA 2 site probe (dsDNA)
DNA 1: TAGTGTGATTGAATTAAAGGGCA
DNA 2: TGCCCTTTAATTCAATCACACTA
B4: PHOX2A promoter homeodomain binding site probe (dsDNA)
DNA 1: TCAGAGCGAATTGAATTAACTTCTTCACAC
DNA 2: GTGTGAAGAAGTTAATTCAATTCGCTCTGA

Chain of PHOX2B WT (HA-tagged) (Q99453 whole entry): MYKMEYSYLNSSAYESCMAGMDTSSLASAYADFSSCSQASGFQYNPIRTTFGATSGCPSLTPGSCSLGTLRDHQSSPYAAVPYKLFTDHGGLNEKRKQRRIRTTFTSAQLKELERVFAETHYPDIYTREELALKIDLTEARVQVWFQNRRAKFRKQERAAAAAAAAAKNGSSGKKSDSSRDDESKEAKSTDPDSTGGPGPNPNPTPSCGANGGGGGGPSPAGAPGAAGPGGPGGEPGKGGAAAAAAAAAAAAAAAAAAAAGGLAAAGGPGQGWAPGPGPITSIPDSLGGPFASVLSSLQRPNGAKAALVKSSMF

The data set addresses PHOX2B WT (HA-tagged) (human, UniProt Q99453 1-314). The data set is described as follows: EMSA; self-competition and anti-HA supershift; EMSA as previously described (refs 25, 28) with rabbit reticulocyte lysate proteins; buffer, salt, pH and temperature not given. Conditions: protein: ivt; tags: N-terminal HA; label: radiolabeled. Background: Mobility shift assays separate free from complexed probe on a gel.
Turning to B1, the binding result is “binds”.

As for B2, the binding result is “binds”. Consider B3, for which the binding result is reported as “binds”. For B4 the value was “binds”.
